Target: T1, PUF4 RNA-binding domain (Saccharomyces cerevisiae, UniProt P25339 537-888)
T1 sequence: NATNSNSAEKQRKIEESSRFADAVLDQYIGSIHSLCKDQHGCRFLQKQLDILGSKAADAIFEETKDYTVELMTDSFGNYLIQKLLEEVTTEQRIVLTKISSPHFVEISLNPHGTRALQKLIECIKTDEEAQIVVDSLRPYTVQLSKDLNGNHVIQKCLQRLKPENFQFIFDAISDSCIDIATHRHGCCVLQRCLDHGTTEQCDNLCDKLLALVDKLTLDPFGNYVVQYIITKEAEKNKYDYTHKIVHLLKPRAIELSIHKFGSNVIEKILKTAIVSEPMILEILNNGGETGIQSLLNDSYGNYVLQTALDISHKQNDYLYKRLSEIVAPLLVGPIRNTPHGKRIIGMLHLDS
Experiment: Mg; RNA-MaP; 20 mM Na-HEPES pH 7.4, 30 mM KOAc, 0.75 mM MgCl2, 0.1% Tween-20, 5% glycerol, 0.1 mg/mL BSA, 2 mM DTT; 25 C; 0.0125-409.6 nM protein
Conditions: tags: N-His6-TEV cleaved; C-SNAP kept, Cy3B-labelled; label: tethered on chip by stalled RNA polymerase

| Binder | Kd [nM] |
| --- | --- |
| Id_iii_S2_P4E.8_K4.4_C4.3_[C-2G]_H4.1_A4.2_F4.1_T4.2 (ssRNA) RNA: UUUGAUUAAUAUGAUAUCGUUCUUUCUUGUUGUAUUUUAGUUUCUUUCUCGAUAUCAUAUUAAUCUUU | 1.45 |
| Id_iii_S2_P4E.9_K4.5_C4.3_[T-1G]_H4.1_A4.2_F4.2_T4.2 (ssRNA) RNA: UUUGAUUAAUAUGAUAUCGUUCUUUCUUCGUGUAUUUAAGUUUCUUUCUCGAUAUCAUAUUAAUCUUU | 502 |
| Id_iii_S2_P4E.8_K4.4_C4.3_[C-2T]_H4.1_A4.2_F4.1_T4.2 (ssRNA) RNA: UUUGAUUAAUAUGAUAUCGUUCUUUCUUUUUGUAUUUUAGUUUCUUUCUCGAUAUCAUAUUAAUCUUU | 0.936 |
| Id_iii_S2_P4E.8_K4.4_C4.3_H4.1_A4.2_F4.1_T4.2_[G10C] (ssRNA) RNA: UUUGAUUAAUAUGAUAUCGUUCUUUCUUCUUGUAUUUUACUUUCUUUCUCGAUAUCAUAUUAAUCUUU | 2.77 |
| Id_iii_S2_P4E.8_K4.4_C4.3_[C-2A]_H4.1_A4.2_F4.1_T4.2 (ssRNA) RNA: UUUGAUUAAUAUGAUAUCGUUCUUUCUUAUUGUAUUUUAGUUUCUUUCUCGAUAUCAUAUUAAUCUUU | 1.76 |
| Id_iii_S2_P4E.9_K4.5_C4.3_H4.1_A4.2_F4.2_T4.2_[G10C] (ssRNA) RNA: UUUGAUUAAUAUGAUAUCGUUCUUUCUUCUUGUAUUUAACUUUCUUUCUCGAUAUCAUAUUAAUCUUU | 77.5 |
| Id_iii_S2_P4E.8_K4.4_C4.3_H4.1_A4.2_F4.1_T4.2_[T11C] (ssRNA) RNA: UUUGAUUAAUAUGAUAUCGUUCUUUCUUCUUGUAUUUUAGCUUCUUUCUCGAUAUCAUAUUAAUCUUU | 1.42 |
| Id_iii_S2_P4E.8_K4.4_C4.3_[T-1A]_H4.1_A4.2_F4.1_T4.2 (ssRNA) RNA: UUUGAUUAAUAUGAUAUCGUUCUUUCUUCAUGUAUUUUAGUUUCUUUCUCGAUAUCAUAUUAAUCUUU | 1.28 |
| Id_iii_S2_P4E.8_K4.4_C4.3_H4.1_A4.2_F4.1_T4.2_[G10T] (ssRNA) RNA: UUUGAUUAAUAUGAUAUCGUUCUUUCUUCUUGUAUUUUAUUUUCUUUCUCGAUAUCAUAUUAAUCUUU | 0.967 |
| Id_iii_S2_P4E.9_K4.5_C4.3_[T-1A]_H4.1_A4.2_F4.2_T4.2 (ssRNA) RNA: UUUGAUUAAUAUGAUAUCGUUCUUUCUUCAUGUAUUUAAGUUUCUUUCUCGAUAUCAUAUUAAUCUUU | 554 |
| Id_iii_S2_P5E.5_K5.1_C5.3_H5.1_A5.1_F5.1_T5.2_[T11A] (ssRNA) RNA: UUUGAUUAAUAUGAUAUCGUUCUUUCUUCUUGUAUUAUUAAAUUCUUUCUCGAUAUCAUAUUAAUCUUU | 3.88 |
| Id_iii_S2_P5E.5_K5.1_C5.3_H5.1_A5.1_F5.1_T5.2_[A12T] (ssRNA) RNA: UUUGAUUAAUAUGAUAUCGUUCUUUCUUCUUGUAUUAUUAUUUUCUUUCUCGAUAUCAUAUUAAUCUUU | 1.59 |
| Id_iii_S2_P5E.5_K5.1_C5.3_H5.1_A5.1_F5.1_T5.2_[A12C] (ssRNA) RNA: UUUGAUUAAUAUGAUAUCGUUCUUUCUUCUUGUAUUAUUAUCUUCUUUCUCGAUAUCAUAUUAAUCUUU | 1.64 |
| Id_iii_S2_P5E.7_K5.3_C5.3_[T-3A]_H5.3_A5.1_F5.1_T5.2 (ssRNA) RNA: UUUGAUUAAUAUGAUAUCGUUCUUUCUACUACACUUAUUAUAUUCUUUCUCGAUAUCAUAUUAAUCUUU | 709 |
| Id_iii_S2_P5E.6_K5.2_C5.3_H5.2_A5.1_F5.1_T5.2_[A12T] (ssRNA) RNA: UUUGAUUAAUAUGAUAUCGUUCUUUCUUCUUAUAUUAUUAUUUUCUUUCUCGAUAUCAUAUUAAUCUUU | 42.1 |
| Id_iii_S2_P5E.7_K5.3_C5.3_[C-2G]_H5.3_A5.1_F5.1_T5.2 (ssRNA) RNA: UUUGAUUAAUAUGAUAUCGUUCUUUCUUGUACACUUAUUAUAUUCUUUCUCGAUAUCAUAUUAAUCUUU | 2.01 |
| Id_iii_S2_P5E.5_K5.1_C5.3_H5.1_A5.1_F5.1_T5.2_[A12G] (ssRNA) RNA: UUUGAUUAAUAUGAUAUCGUUCUUUCUUCUUGUAUUAUUAUGUUCUUUCUCGAUAUCAUAUUAAUCUUU | 2.58 |
| UCUCUUUGUACAAUUAUCUCUU (ssRNA) [Ic_S1_P5E.1_K5.1_C5.1_H5.1_A5.1_[T5C]_[T6A]_F5.1_T5.1] | 5.07 |
| UCUCUUUGUACGAUUAUCUCUU (ssRNA) [Ib_S1_P5E.1_K5.1_C5.1_H5.1_A5.1_[T5C]_[T6G]_F5.1_T5.1] | 9.71 |

From PMC9352680, “A comprehensive thermodynamic model for RNA binding by the Saccharomyces cerevisiae Pumilio protein PUF4”
